Experimental findings from article PMC5498496 are described below.

A short description of series [1]: αIIbβ3 cell surface expression, flow cytometry. The settings on record: glycan lost; control: wild-type αIIb with β3.
A short description of series [2]: eptifibatide-induced mAb binding, flow cytometry. The conditions noted are these: glycan lost; control: wild-type αIIb with β3.
A short description of series [3]: surface expression by mAbs 10E5, AP2, AP3, flow cytometry. The conditions noted are these: glycan lost; control: wild-type αIIbβ3.
Series [4] is described as follows: β3-K716A-mediated mAb binding, flow cytometry. The conditions noted are these: glycan lost; control: wild-type αIIb with active β3-K716A.

For integrin αIIb subunit: αIIb-N15Q, the expression_or_secretion result in series [1] is recorded as “no change”.

Consider integrin αIIb subunit: αIIb-N15S, for which the structure_or_conformation entry in series [2] is listed as “no change”. The expression_or_secretion entry in series [3] is on record as “no change”.

Regarding integrin αIIb subunit: αIIb-N249Q, the expression_or_secretion result in series [1] is given as “decreases”.

Take integrin αIIb subunit: αIIb-N249S: the structure_or_conformation entry in series [2] and in series [4] was “no change” in each case.

Consider integrin αIIb subunit: αIIb-N570Q, for which, in series [1], the expression_or_secretion entry is “decreases”.

For integrin αIIb subunit: αIIb-N680Q, the expression_or_secretion result in series [1] was “decreases”.

As to integrin αIIb subunit: αIIb-N931Q, in series [1], the expression_or_secretion entry is “decreases”.

In the case of integrin αIIb subunit: αIIb-N931S, the structure_or_conformation result in series [2] is “no change”.
